In the MegaScale stability set (Tsuboyama et al. 2023):

B1: HHH_rd2_0155 (parent)
chain: PPDDERKKAEKAARSGNEEKAREILERLGYSEDEARELAKRLR
B2: 6NMW (parent)
chain: QGDIVVALYPYDGIHPDDLSFKKGEKMKVLEEHGEWWKAKSLLTKKEGFIPSNYVAKLN

Variants of: B1
Test: folding stability dG (cDNA display proteolysis); higher = more stable
Conditions: PBS, room temperature

Folding stability dG [kcal/mol]: each site, then its substitutions
P1: H 2.29, K 2.14, L 2.24, S 2.35, M 2.17, W 2.33, D 2.36, R 2.21, T 2.36, A 2.22, F 2.22, V 2.13, I 2.12, Q 2.2, N 2.41, Y 2.24, G 2.26, E 2.2
D3: S 2.08, G 1.98, T 1.95, P 1.89, F 1.79, A 1.91, R 1.75, Q 1.92, H 1.9, Y 1.93, M 2.02, V 1.85, W 2.1, L 2.06, I 1.95, N 1.98, C 2.41, E 2.14, K 1.73
P2: A 2.18, Q 2.15, L 2.14, W 2.29, I 2.25, H 2.24, F 2.35, N 2.15, S 1.97, G 2.04, M 2.23, V 2.2, D 2.21, R 2.17, Y 2.29, T 2.02, C 2.29, K 2.11, E 2.24
D4: E 2.26, Q 2.04, G 1.75, M 1.97, T 2.17, K 1.95, V 2.06, W 2.09, P 1.88, F 2.02, I 2.17, H 1.88, R 1.98, Y 1.93, C 2.15, L 2.22, N 1.9, S 2.16, A 2.09
E5: H 1.5, F 1.88, A 1.86, G 1.65, D 2.01

Variants of: B2
Test: as above
Conditions: PBS, room temperature

Folding stability dG [kcal/mol] of substitutions, site by site:
G48: F 0.034, W -0.877, K 0.081, A -0.512, Y 0.585, S -0.544, H -0.819, C 0.255, N -0.967
A56: F 3.43, Q 3.85, G 2.51, V 4.56, M 4.36, R 4.18, S 3.31, P 0.083, N 2.24, T 3.8, L 3.61, K 4.04, I 4.4, C 4.6, Y 3.8, W 2.92, E 3.61, D 2.03, H 3.07
E47: K 2.55, A 2.77, S 3.47, Q 3.21, F 2.36, H 2.22, Y 2.25, W 2.14, R 2.28, G 1.26, N 1.81, L 2.59, D 1.89, V 4.3, I 4.37, C 3.83, M 3.2
V55: I 2.12, F 4.1, M 1.6, Y 0.703, C 2.7, K 0.066, S -0.255, W 0.199, P -0.707, G 0.112, E -0.519, T 1.68, A 1.47, H -0.417, L 1.18
F49: R 3.83, A 1.48, I 2.63, G 0.912, L 3.4, V 2.3, P -0.719, T 2.25, C 3.83, Q 2.25, E 0.945, S 1.94, H 1.88, D 1.19, K 2.81, M 4.22, N 3.4, W 4.88
K57: I 3.23, S 2.94, E 2.02, M 2.85, Q 2.68, H 3.25, R 4.37, A 3.02, N 2.44, C 3, Y 4.22, V 3.39, L 3.61, P 3.63, W 3.87, D 1.86, G 2.27, F 3.96, T 2.85
P51: N 2.28, A 0.249, E 0.647, H 1.83, C 2.34, Y 1.26, V -0.225, K 1.62, G 0.115, L 1.54, M 1.59, I 0.759, D 1.08, Q 1.09, W 1.33, R 1.7, S 1.19, F 1.25, T -0.429
N53: D 3.14, C 4.41, F 3.06, K 3.93, E 3.19, R 4.09, I 2.98, L 3, T 3.74, G 3.47, P 1.68, Y 3.12, W 4.69, A 4.07, V 2.88, S 4.5, Q 3.5, H 3.87, M 3.07
K46: G 2.14, A 3.05, L 3.56, D 2.47, M 3.47, W 1.73, R 3.66, E 2.94, H 2.64, S 2.48, V 2.21, C 3.37, N 3.02, Y 2.02, F 2.48, I 2.34, T 1.95
Y54: A 2.58, T 1.16, L 3.67, S 1.81, D -0.435, E 0.003, V 1.29, P -0.857, F 3.51, H 2.9, N 1.04, Q 1.44, G 0.76, M 3.17, K 2.44, C 2.85, W 2.19, R 2.74, I 2.17
N59: E 3.86, L 3.64, R 3.22, H 3.98, F 3.48, A 3.8, I 4, G 4.04, W 3.08, Y 3.57, Q 3.56, V 3.95, K 3.53, P 3.88, M 3.64, T 3.58, C 4.64, S 4.06, D 3.82
S52: E 1.64, V 3.02, F 2.85, T 2.23, A 4.05, G 2.51, K 4.84, D 1.16, P 3.65, I 2.91, N 2.58, M 3.52, L 2, H 2.96, Y 3.08, W 3.1, R 4.29, C 3.84, Q 3.31
L58: Q 2.38, I 3.89, C 3.88, A 2.62, F 3.26, D 2.77, E 2.77, N 1.86, S 2.55, M 3.45, W 3.73, V 3.89, G 1.84, Y 3.52, K 1.65, P 2.38, R 1.73, T 2.86, H 2.43
K45: L 4.49, M 4.29, D 4.09, S 3.89, Q 4.25, E 4.09, R 3.65, H 4.6, I 1.8, V 1.61, P 0.596, F 4.45, Y 3.97, T 3.1, W 4.01, N 4.22
I50: C 0.571, D -0.59, L 1.58, P -0.401, F 2.01, W -0.594, Y -0.106, A 0.132, V 2.59, M 0.656
